Target: CD3 on T cells (Jurkat T cells; PBMC-T cells)
Test: flow cytometry on Jurkat T cells; protein purified on CH1 resin

Chain of CD3 on T cells (Jurkat T cells; PBMC-T cells) (P07766 23-207): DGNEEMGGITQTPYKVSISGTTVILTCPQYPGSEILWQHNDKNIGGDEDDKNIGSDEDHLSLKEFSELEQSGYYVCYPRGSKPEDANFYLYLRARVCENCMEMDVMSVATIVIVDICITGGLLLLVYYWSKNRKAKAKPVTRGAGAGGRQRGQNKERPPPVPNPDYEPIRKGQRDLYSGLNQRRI

Kd: 6.12 nM
B1: IgFD-36(anti-CD3) (antibody, human IgG1, kappa, V domains shown)
VH: EVQLVESGGGLVQPGGSLRLSCAASGFTFNTYAMNWVRQAPGKGLEWVARIRSKYNNYATYYADSVKDRFTISRDDSKNTLYLQMNSLRAEDTAVYYCVRHGNFGNSYVSWFAYWGQGTLVTVSS
VL: QAVVTQEPSLTVSPGGTVTLTCRSSTGAVTTSNYANWVQQKPDHLFRGLIGGTNKRAPGTPARFSGSLLGDKAALTISGAQPEDEAEYYCALWYSNLWVFGGGTKLTVLK
